Test results taken from patent US20040077835A1, “Chemokine receptor modulators, production and use” (published 2004).
Each block holds one binder with its values, some of them ahead of it. The star is where a group is joined. Nonanoyl = CCCCCCCCC(=O)*

Tests used:
CCR5 [1] = target: T1, CCR5 (Homo sapiens (Human), UniProt P51681); assay: cell-based or functional assay
CCR5 [2] = target: T1, CCR5; assay: cell-based or functional assay; remark: listed apart in the source

B2: AOP-RANTES-K(palmitoyl)-G (ligand)
chain: PYSSDTTPCCFAYIARPLPRAHIKEYFYTSGKCSNPAVVFVTRKNRQVCANPEKKWVREYINSLEMSKG
modifications: N-terminal aminooxypentane in place of Ser 1; epsilon amino group of the Lys of the C-terminal extension carries glyoxylyl=AoA-ethylene diamine-palmitate ("palmitoyl"), joined by an oxime bond
- Mean Relative Potency (IC50 in the envelope-mediated cell fusion assay, relative to AOP-RANTES = 100) (CCR5 [2]): 45 relative to AOP-RANTES = 100

B3: NNY-PYSSDTTPCCFAYI-A16S-RANTES (17-68) (ligand)
chain: Nonanoyl-PYSSDTTPCCFAYISRPLPRAHIKEYFYTSGKCSNPAVVFVTRKNRQVCANPEKKWVREYINSLEMS
modifications: ends and bridges not checked
- Mean Relative Potency (IC50 in the envelope-mediated cell fusion assay, relative to AOP-RANTES = 100) (CCR5 [2]): 15 relative to AOP-RANTES = 100

B5: Aminooxypentane-RANTES (2-68) (ligand)
chain: {CH3‑(CH2)4‑O‑N:CH‑CO}-PYSSDTTPCCFAYIARPLPRAHIKEYFYTSGKCSNPAVVFVTRKNRQVCANPEKKWVREYINSLEMS
modifications: ends and bridges not checked
- Mean Relative Potency (IC50 in the envelope-mediated cell fusion assay, relative to AOP-RANTES = 100) (CCR5 [2]): 100 relative to AOP-RANTES = 100 (arbitrary value of the control)
- Average Infectivity IC50 (cell-free viral infection assay) (CCR5 [1]): 145 pM
- Cell-Fusion Result For Comparison (IC50) (CCR5 [1]): 480 pM

Second part, the binder after the results:

- Average Infectivity IC50 (cell-free viral infection assay) (CCR5 [1]): 24 pM
- Cell-Fusion Result For Comparison (IC50) (CCR5 [1]): 97 pM
B1: n-Nonanoyl-RANTES (2-68) (ligand)
chain: Nonanoyl-PYSSDTTPCCFAYIARPLPRAHIKEYFYTSGKCSNPAVVFVTRKNRQVCANPEKKWVREYINSLEMS
modifications: ends and bridges not checked

- Mean Relative Potency (IC50 in the envelope-mediated cell fusion assay, relative to AOP-RANTES = 100) (CCR5 [2]): 13 relative to AOP-RANTES = 100
B4: NNY-…-L19I-RANTES (20-68) (ligand)
chain: Nonanoyl-PYSSDTTPCCFAYIARPIPRAHIKEYFYTSGKCSNPAVVFVTRKNRQVCANPEKKWVREYINSLEMS
modifications: ends and bridges not checked
